According to patent US6833248B2, “Human caspase-12 materials and methods” (Pharmacia & Upjohn Company, priority 2000, dated 2004):
Each block holds one molecule with its values, some of them ahead of it.

Columns and labels:
GRP 78 = assay: Induction of GRP 78 in cell cultures (control Western blot); format: cell-based; conditions: tunicamycin treatment
Protocol: (§1) Cell cultures were treated with 1 μg/ml tunicamycin or 2 μM A23187 (Calbiochem) and harvested over time. Cells were lysed in detergent buffer, cellular proteins resolved on NuPAGE gels and subjected to Western blot analysis using the same antibody as in Example 8A above. […] (BACHEM) for 40 hours.

[1] = test system: endogenous human caspase-12; assay: Induction of endogenous caspase-12 protein by ER stress-inducing agents in SH-EP cells (Western blot); format: cell-based; conditions: SH-EP cells, 1 μg/ml tunicamycin, harvested over time
Protocol: Reports in the literature indicated a strong activation of murine caspase-12 in response to agents which induce an endoplasmic reticulum (ER) stress response, such as tunicamycin or the Ca^2+ ionophore A23187. The activation of endogenous human caspase-12 by these ER stress-inducing agents in SH-EP and HEK293 cells was evaluated by Western blot analysis of cell lysates. SH-EP is a neuroblastoma cell line that endogenously expresses human caspase-12 at detectable levels. HEK293 is a transformed kidney cell line that lacks detectable caspase-12.
as §1
The biological significance of caspase-12 up-regulation by the ER stress-inducing agent A23187 in apoptosis was further investigated. SH-EP cells were treated with 2 μM A23187 for 40 hours to induce expression of endogenous caspase-12. One control culture was left untreated. Of the four cultures treated with A23187, one culture received 10 μg/ml cycloheximide (CHX) to block new protein synthesis and two cultures were subjected to an apoptotic stimulus, either 250 ng/ml α-Fas antibody for 24 hours or 1200 microjoules UV irradiation. The cultures were harvested after 6.5 hours. Western blot analysis of caspase-12 expression and activation was done as described above in Example 8A, using similar protein loads for each condition tested.

procaspase-3 = assay: Proteolytic activity using procaspase-3 substrate (Western blot); format: biochemical; conditions: partially purified preparation, 2 hours at 37° C.; antibody to full-length caspase-3
Protocol: Lysates which contain recombinant caspases produced by expression in E. coli often contain fragments indicative of autoprocessing. Because the autolysis in caspase-12 lysates observed in Example 3B above is indicative of enzymatic activity, the enzymatic activity of partially purified human caspase-12 lysates was evaluated using procaspase-3 as a potential substrate. Caspase-3 is an effector caspase, which is cleaved at Asp175 by initiator caspases-8 and -9 to give the mature 19 kDa and 11 kDa subunits of the active enzyme. Processing of procaspase-3 was evaluated by Western blot analysis using an antibody that binds to full-length caspase-3 and another antibody that binds to the larger B subunit and that is specific for activated enzyme.
For use as a substrate for caspase-12, procaspase-3 was immunoprecipitated from SH-EP cell lysates using an antibody to full-length caspase-3 (Upstate Biotechnology, Inc.) and isolated on Protein G-Plus/Protein A agarose (Oncogene Science). […] Caspase-3 processing/activation by caspase-12 was detected by incubating with an anti-caspase-3 antibody (Upstate Biotechnology) which recognizes all subunits of caspase-3. Following incubation with an anti-rabbit HRP-conjugated antibody (Santa Cruz Biotechnology), immunoreactivity was detected by chemiluminescence using SuperSignal West PICO reagent (Pierce). […]

DEVD-R110 = assay: Homogeneous Caspase Assay, fluorimetric, release of rhodamine-110 from DEVD-R110; format: biochemical; conditions: partially purified protein preparation; two-hour incubation of DEVD-R110 substrate
Source text: The enzymatic activity of the partially purified hCaspase-12 and ΔCARD proteins was further evaluated in a fluorimetric assay allowing quantitation. The caspase activity of partially purified hCaspase-12 and ΔCARD protein preparations was compared to a control (non-caspase protein) preparation, using the Homogeneous Caspase Assay (Roche Biochemicals) according to the manufacturer's protocol. The assay measures the amount of free rhodamine-110, following its release from the substrate DEVD-R110, a caspase recognition sequence. Following a two-hour incubation of DEVD-R110 substrate with dilutions of the various protein preparations, free rhodamine-110 was quantitated fluorimetrically. Measured fluorescence intensity (RFU) for each preparation was 807 for hCaspase-12, 445 for ΔCARD, and 31 for the control.

calpain II = molecular target: T1, calpain II (Homo sapiens, UniProt P17655); assay: Calpain II cleavage of human caspase-12 in vitro (Western blot); format: biochemical; conditions: affinity-purified protein, 0.012 U/μl calpain II activated by 5 mM CaCl2
T1 construct: purchased Calbiochem
T1 sequence (P17655 1-700): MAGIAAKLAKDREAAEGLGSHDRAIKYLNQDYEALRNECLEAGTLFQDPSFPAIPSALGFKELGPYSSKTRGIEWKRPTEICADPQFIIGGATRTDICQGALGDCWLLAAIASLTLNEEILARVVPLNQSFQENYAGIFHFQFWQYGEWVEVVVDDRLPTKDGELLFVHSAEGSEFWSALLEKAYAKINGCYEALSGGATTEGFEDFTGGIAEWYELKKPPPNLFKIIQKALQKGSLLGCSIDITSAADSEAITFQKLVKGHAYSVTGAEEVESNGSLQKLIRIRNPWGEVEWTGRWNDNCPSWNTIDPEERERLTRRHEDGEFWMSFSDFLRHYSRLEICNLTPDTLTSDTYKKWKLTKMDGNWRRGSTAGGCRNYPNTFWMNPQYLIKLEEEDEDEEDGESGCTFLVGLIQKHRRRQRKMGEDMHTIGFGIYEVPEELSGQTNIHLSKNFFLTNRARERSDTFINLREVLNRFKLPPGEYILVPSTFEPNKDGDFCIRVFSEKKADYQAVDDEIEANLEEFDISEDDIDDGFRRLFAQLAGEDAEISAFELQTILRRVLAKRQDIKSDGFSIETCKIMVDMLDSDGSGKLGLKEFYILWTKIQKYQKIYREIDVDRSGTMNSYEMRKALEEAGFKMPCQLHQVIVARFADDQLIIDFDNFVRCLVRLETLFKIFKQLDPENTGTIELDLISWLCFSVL
T1 sequence (P04632 1-268 partner): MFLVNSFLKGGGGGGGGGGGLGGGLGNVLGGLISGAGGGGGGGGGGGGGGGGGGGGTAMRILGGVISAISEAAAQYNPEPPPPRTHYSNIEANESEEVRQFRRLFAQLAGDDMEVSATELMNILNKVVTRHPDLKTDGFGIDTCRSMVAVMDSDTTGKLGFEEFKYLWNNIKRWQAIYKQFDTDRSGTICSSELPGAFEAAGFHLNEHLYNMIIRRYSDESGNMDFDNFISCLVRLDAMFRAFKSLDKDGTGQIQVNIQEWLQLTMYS
Protocol: The relationship between calpain and caspase-12 was explored in vitro as follows. Affinity-purified hCaspase-12 and ΔCARD caspase-12 prepared as described in Example 3B above, were incubated with 0.012 U/μl calpain II (Calbiochem) in solutions containing 150 mM NaCl, 20 mM Tris-HCl, pH 7.5, and 1 mM DTT. Calpain II was activated by the addition of 5 mM CaCl2, while corresponding control cultures were not activated by addition of calcium. Cleavage of human caspase-12 was evaluated by Western blot analysis as described in Example 8A above. […] Thus, the activation and processing of caspase-12 is closely tied to cellular calcium levels. It is anticipated that calpain will process caspase-12 by recognizing the cleavage site “ASADT” at positions 269-272 of hCaspase-12 (SEQ ID NO: 77), with cleavage occurring between residues 271 and 272. Because cellular calcium is an important regulatory feature in health and disease, the signaling pathway to caspase-12 may have multiple branches that can result in activation of this caspase.

SH-EP cells = assay: Cleavage of exogenous hCaspase-12 in transfected SH-EP cells after αFas-antibody induction of the extrinsic cell death pathway (Western blot); format: cell-based; conditions: 250 ng/ml αFas-antibody for 18 hours
Protocol: The role of hCaspase-12 in cell death pathways was examined using cells of a neuroblastoma cell line, SH-EP. In the extrinsic (or receptor-induced) cell death pathway, caspase-8 is the apical caspase that cleaves effector caspases such as caspase-3, which cleaves many cellular substrates. Caspase activation, indicated by cleavage of the proform of the enzyme in cell lysates, was evaluated by Western blot analysis.
The expression vector pIRES-hrGFP-1a harboring the hCaspase-12 or RIK-5 gene was transfected into SH-EP cells using Superfect transfection reagent (Qiagen). At 24 hours post-transfection, 250 ng/ml αFas-antibody (CH-11, Upstate Biotechnology) was added and incubated for 18 hours to induce the extrinsic cell death pathway. Culture medium and cells were harvested and lysed in detergent buffer. Cleavage of exogenous hCaspase-12 was evaluated by Western blot analysis using anti-human caspase-12 antibody (prepared against peptide WSHHLEEIFQKVQHSFE as described in Example 4).

Molecule: tunicamycin
Induction of GRP 78 (GRP 78): induction
Induction of caspase-12 protein [1]: strong induction

Measured fluorescence intensity (RFU), free rhodamine-110 (DEVD-R110): 445 RFU
Cleavage by calpain II (calpain II): cleaves
B1: ΔCARD: variant of human caspase-12 missing the CARD domain, with Ser-205 to Gly mutation (SEQ ID NO: 79) (protein, listed as Homo sapiens)
chain: SALLEIQGAQPSGKLKLCPHAHFHELKTKRADEIYPVMEKERRTCLALNIRNKEFNYLHNRNGSELDLLGMRDLLENLGYSVVIKENLTAQEMETALRQFAAHPEHQSSDSTFLVFMSHGILNGICGTKHWDQEPDVLHDDTIFEIFNNRNCQSLKDKPKVIIMQACRGNGAGIVWFTTDSGKASADTHGRLLQGNICNDAVTKAHVEKDFIAFKSSTPHNVSWRHETNGSVFISQIIYYFREYSWSHHLEEIFQKVQHSFETPNILTQLPTIERLSMTRYFYLFPGN
Processing of procaspase-3 to mature subunits (procaspase-3): lower molecular weight bands indicative of cleaved mature subunits were observed
Cleavage of exogenous protein in cultures undergoing apoptosis (SH-EP cells): cleaved

Measured fluorescence intensity (RFU), free rhodamine-110 (DEVD-R110): 807 RFU
Cleavage by calpain II (calpain II): cleaves
B2: hCaspase-12: non-naturally occurring variant human caspase-12 with Ser-205 to Gly mutation (SEQ ID NO: 77), expressed as 6-His fusion protein (protein, listed as Homo sapiens)
chain: MADEKPSNGVLVHMVKLLIKTFLDGIFDDLMENNVLNTDEIHLIGKCLKFVVSNAENLVDDITETAQIAGKIFREHLWNSKKQLSSALLEIQGAQPSGKLKLCPHAHFHELKTKRADEIYPVMEKERRTCLALNIRNKEFNYLHNRNGSELDLLGMRDLLENLGYSVVIKENLTAQEMETALRQFAAHPEHQSSDSTFLVFMSHGILNGICGTKHWDQEPDVLHDDTIFEIFNNRNCQSLKDKPKVIIMQACRGNGAGIVWFTTDSGKASADTHGRLLQGNICNDAVTKAHVEKDFIAFKSSTPHNVSWRHETNGSVFISQIIYYFREYSWSHHLEEIFQKVQHSFETPNILTQLPTIERLSMTRYFYLFPGN
modifications: 6-His tag
Processing of procaspase-3 to mature subunits (procaspase-3): lower molecular weight bands indicative of cleaved mature subunits were observed
Cleavage of exogenous protein in cultures undergoing apoptosis (SH-EP cells): cleaved
